Test results from patent US20210340276A1 (Astellas, published 2021).
Read-outs that look alike come from different tables or passages of the source.

Key:
Test in all cases: ELISA, MUC1 peptide immobilized on 384-well plate, HRP anti-human Igκ detection, luminescence
[1] = biological target: T1, Human cancer-specific MUC1 peptide (PTL 1) (human)
T1 construct: Immobilized at 0.5 µmol/L per well on a 384-well ELISA plate
Description: (§1) Human cancer-specific MUC1 peptide (PTL 1) was immobilized at 0.5 μmol/L per well onto a 384-well ELISA plate. The resultant was reacted with each anti-human MUC1 antibody Fab fragment conjugate described above (sample No. 5, 6, 7, or 3) and then reacted with a horseradish peroxidase-labeled goat anti-human Igκ antibody (Southern Biotechnology Associates, Inc.) as a secondary antibody. ECL Prime Western Blotting Detection Reagent (GE Healthcare Japan Corp.) was added thereto for luminescence, and the degree of the luminescence was examined.
(§2) Likewise, binding activity evaluation was also conducted as to the anti-human MUC1 antibody Fab fragment conjugates given below.

[2] = biological target: T1, Human cancer-specific MUC1 peptide (PTL …); remark: listed apart in the source
Description: as §1, §2

[3] = biological target: T1, Human cancer-specific MUC1 peptide (PTL …); remark: listed apart in the source
Description: as §1

B1: P10-2 Fab (Fab, V domains shown)
VH: QVQLVQSGAEVKKPGASVKVSCKASGYTFTNYGLSWVRQAPGQGLEWMGENHPGSGIIYHNEKFRGRVTLTADRSTSTAYMELSSLRSEDTAVYYCARSSGTRGFDYWGQGTLVTVSS
VL: DVVMTQTPLSLSVTPGQPASISCRSSQSIVHSNGNTYLEWYLQKPGQSPQLLIYRVSNRFSGVPDRFSGSGSGTDFTLKISRVEAEDVGVYYCFQGSHGPWTFGQGTKLEIKR
modifications: heavy chain N-terminal glutamine modified into pyroglutamic acid in a great majority of purified antibodies (Example 2)
notes: expressed in Expi293F cells, purified with KappaSelect; also called anti-human MUC1 antibody Fab fragment P10-2
EC50 [1]: 0.17 nM | EC50 [2]: 0.16 nM | EC50 [3]: 0.23 nM
